Reference: paper PMC6497099, “Structural basis for oligomerization of the prokaryotic peptide transporter PepTSo2” (Acta Crystallographica. Section F, Structural Biology …, 2019)

Assays:
[1] = target: the molecule itself; assay: SEC; purified PepTSo2 in DDM-containing buffer, Superose 6 Increase column, tryptophan fluorescence (excitation 280 nm, emission 350 nm)
[2] = target: the molecule itself; assay: SEC; fluorescence-detection SEC (FSEC) of the DDM-solubilised supernatant of E. coli cells mixed with the His tag-specific probe P3NTA (excitation 482 nm, emission 520 nm)

Protein | stoichiometry N [1] | stoichiometry N [2]
PepTSo2 from Shewanella oneidensis, purified, His6 tag cleaved by TEV protease (natural protein, S. oneidensis, full-length PepTSo2, Shewanella oneidensis, UniProt Q8EHE6; Detergent-solubilised (DDM) for SEC; in Salipro nanoparticles (saposin A, DMPG) for cryo-EM; in monoolein lipidic cubic phase for crystals; also called tetrameric PepTSo2; purified PepTSo2; source: E. coli Rosetta 2 (DE3), purified (DDM solubilisation, Ni-NTA, TEV cleavage, second Ni-NTA, SEC); not shown: His6, C-terminal, cleaved) MTLGTNQVSKTHSFMTVSLIELWERFGYYGMQALIVYFMVQRLGFDDSRANLVWSACAALIYVSPAIGGWVGDKILGTKRTMLLGAGILSVGYALMTVPTENTWFMFSALGVIVVGNGLFKPNAGNLVRKIYEGDDSKIDSAFTIYYMAVNVGSTFSMLLTPWIKDYVNAQYGNEFGWHAAFAVCCVGILVGLGNYALMHKSLANYGSEPDTRPVNKKSLAIVLALAALSVVASAIILEYEDVARVFVYAAGVAVLGIFFHLIRTSEPSERAGLIAALILTVQTVFFFIFYQQMSTSLALFALRNVDWDFQVFGTHLWTWSPAQFQALNPIWIMVLSPVLAWSYSWAGRNNKDFSIAAKFALGFAVVAIGFFIYGFAGQFAVNGKTSSWVMIWGYASYSLGELLVSGLGLAMIARYVPARMGGFMMGAYFVASGISQYLGGVVANFASVPQDLVDPLQTLPVYTNLFNKLGVAAVVCTIIALAVLPLMRRLTESHHAHSSIENNAAASLRDVKAEQLESSGENLYFQ | 4 | –
C-terminally His6-tagged full-length PepTSo2 (tag kept, FSEC screening) (natural protein, S. oneidensis, full-length PepTSo2, Shewanella oneidensis, UniProt Q8EHE6; cloning artifact with the TEV protease site, between PepTSo2 and the His6 tag (not cleaved in this experiment); Detected in FSEC by the histidine tag-specific fluorescent probe P3NTA; also called His6-tagged PepTSo2; His6 construct; source: E. coli Rosetta 2 (DE3) or C41 (DE3) with pRARE, DDM-solubilised supernatant of disrupted cells; …) MTLGTNQVSKTHSFMTVSLIELWERFGYYGMQALIVYFMVQRLGFDDSRANLVWSACAALIYVSPAIGGWVGDKILGTKRTMLLGAGILSVGYALMTVPTENTWFMFSALGVIVVGNGLFKPNAGNLVRKIYEGDDSKIDSAFTIYYMAVNVGSTFSMLLTPWIKDYVNAQYGNEFGWHAAFAVCCVGILVGLGNYALMHKSLANYGSEPDTRPVNKKSLAIVLALAALSVVASAIILEYEDVARVFVYAAGVAVLGIFFHLIRTSEPSERAGLIAALILTVQTVFFFIFYQQMSTSLALFALRNVDWDFQVFGTHLWTWSPAQFQALNPIWIMVLSPVLAWSYSWAGRNNKDFSIAAKFALGFAVVAIGFFIYGFAGQFAVNGKTSSWVMIWGYASYSLGELLVSGLGLAMIARYVPARMGGFMMGAYFVASGISQYLGGVVANFASVPQDLVDPLQTLPVYTNLFNKLGVAAVVCTIIALAVLPLMRRLTESHHAHSSIENNAAASLRDVKAEQLESSGENLYFQGQFTSSV | – | 4
